Source: the DeepSol protein solubility set

Assay: soluble on expression in E. coli; label from the status in PepcDB or PDB records

Sequence | soluble on expression in E. coli
MGSSHHHHHHSSGLVPRGSHMALSRGLPRELAEAVAGGRVLVVGAGGIGCELLKNLVLTGFSHIDLIDLDTIDVSNLNRQFLFQKKHVGRSKAQVAKESVLQFYPKANIVAYHDSIMNPDYNVEFFRQFILVMNALDNRAARNHVNRMCLAADVPLIESGTAGYLGQVTTIKKGVTECYECHPKPTQRTFPGCTIRNTPSEPIHCIVWAKYLFNQLFGEEDADQEVSPDRADPEAAWEPTEAEARARACNEDGDIKRISTKEWAKSTGYDPVKLFTKLFKDDIRYLLTMDKLWRKRKPPVPLDWAEVQSQGEETNASDQQNEPQLGLKDQQVLDVKSYARLFSKSIETLRVHLAEKGDGAELIWDKDDPSAMDFVTSAANLRMHIFSMNMKSRFDIKSMAGNIIPAIATTNAVIAGLIVLEGLKILSGKIDQCRTIFLNKQPNPRKKLLVPCALDPPNPNCYVCASKPEVTVRLNVHKVTVLTLQDKIVKEKFAMVAPDVQIEDGKGTILISSEEGETEANNHKKLSEFGIRNGSRLQADDFLQDYTLLINILHSEDLGKDVEFEVVGDAPEKVGPKQAEDAAKSITNGSDDGAQPSTSTAQEQDDVLIVDSDEEDSSNNADVSEEERSRKRKLDEKENLSAKRSRIEQKEELDDVIALD | soluble
MQEKDCIFCKIVRGEVPAKKVYEDDKVLAFHDINPVAPVHILIIPKKHIMGIQTLEPEDECLVGHMFYVARKIAEDLGIAPDENLNKGYRLVFNVGKDAGQSVFHLHLHLIGGREMSWPPG | soluble
MYNVEIRRPNSDDLEELHSFFRIVITNTFKDEGLSQLSDDIENEINTKKQYLKNDFDSNGEKRYFLLAIDTNNDKIIGTIEVGPASTLINSCTGGVLKDLYEIGTVFILPEYQKKGIGSFLLHTMFLTLLSRGITEYCLDSGYKKAQSIWTKKFGEPSYVLKDYWGESSDHMIWKKSLYDTPIIFELMAGDPLEHHHHHH | soluble
QDSDSTAAVAVLKRAVELDAESRYQQALVCYQEGIDMLLQVLKGTKESSKRCVLRTKISGYMDRAENIKKYLDQEKEDGK | soluble
MGSDKIHHHHHHMRLYTRTGDKGKTSVIGGRLAKDDTRVVAYGTTDELNSFVGLAITQLDENTFADIRGELFKIQHELFDCGGDLAMLKVKEDRPYKAKQEIVDFLEQRIDAYIKEAPELERFILPGGSEAAASLHVCRTIARRAERYVVRLQQEGEINPIVLKYLNRLSDYFFAVARVVNSRLQVPDVEYERSAIVFREGKRKEDKK | not soluble
SLQMQGITGSNITVLELVERYLSLKTGVKHNTLANYKFVVNVLKKEEFAYKKVDDVKLSDAKIFLIKLQRDGRGYSSIHSIRGVLRPAFQMAVDDDLILKNPFGFELGTVLVNDSQKRQAVSPEDETKFLDFVKNDPHYNQYYDAFYILFKTGLRISEFCGLTVKDLDFKEDIINVNHQLQRTREMKYIIVSTKTTSGTRLLPMEADVKEAFLRILKNRRKPKREPMVDGYGGFLFLDKNGRPMVALHWEKYMQHAREKYNRENLLQLPPVTPHICRHTYCTNMANSGMNPKTLQYLMGHSDVSVTLNIYTHTGYDDAKKELARLKEARDELEKKKFITQKHAQTTHVSLIS | not soluble
MKDELIKKLSRPEWDFQYDSEKEVLRIEQKDSKKGINVSLPGVVAKWEVNKEKAIEEVAYYVQEALIAMHKEENSGAKILPVIRSTSFPKQAEEGNPFIMTDHTAETRIYYALDSNKTYRLIDERLLQKLELTEQQVREMALFNARSLGYEFKQDTVAGNTFYFLNTNDGYDATRILNESLLQSMREKISGDMVVAVPHQDVLIIADIVNEIGYDIIAQMTMKFFAEGHVPITSLSFVYEDGEFEPIFILAKNRKKTDGKEKG | not soluble
MNIREPPDVVIFCELIYGAAITCLKKFFLRDVFKIFITSHKANIDLMDVVIKSFTDSTNSGKLSKAWAHAQNCHTNFYELKNMKKKLKQNILKSVSEMNNIIKKADIDMINNNLKPFLKQMEKLPTKKTVTIGNESFEYNKTASWYN | not soluble
GAKNYYDITLALAGICQSARLVQQLAHQGHCDADALHVSLNSIIDMNPSSTLAVFGGSEANLRVGLETLLGVLNASSRQGLNAELTRYTLSLMVLERKLSSAKGALDTLGNRINGLQRQLEHFDLQSETLMSAMAAIYVDVISPLGPRIQVTGSPAVLQSPQVQAKVRATLLAGIRAAVLWHQVGGGRLQLMFSRNRLTTQAKQILAHLTPEL | soluble
VVVGAERTELLLPLLRDKRVALVANATSVVGTEREHLLDNLLRQGVNVVKILGPEHGFRGDADAGATVKDERDVRTGIPIVSLYGKNKKPTPRMLADVDVLLFDMQDVGTRFFTYISTLHYVMEACAEEQKKLIVTDRPNPNDYVDGPILQDDCRSFVGVDPLPILHGLTIGELANMINGEGWLGKKEMKCDLTVVPMSGWKHGQEYALPVKPSPNLPTANAIAWYPSLCLFEATIMSVGRGTDFPFEVLGYPKKVFGSFVFVPRPIRGMDSNPLYKGRHCYGVDLRGEKAPRGLSLQLLIRYYQTARREGIKFVNRKQMFNLLAGTKELAQQIEKGRTEEQIRASWQSDLDKYHKLRKKYLLYPTPTE | soluble
MSLSITSDLIATANSGIWTDSEMLECCAVVPEAPDTVTISFVSPSGNLFKYEPGQFLTLELPVPGGPLYRTYTISSSPSRPLSLSITVKAQPGSIGTRWMLEKLMPGMRVKAIGPAGQFTLDTTARKKKYLFISAGSGVTPTLAMTTYLYDRGTDIDVSIINCARRPGEIIGRRSLAAMASRVPSIKLTFIVEEDDPFQVWTGLRGRLNQIMIGIVAGDYLERDIYCCGPEPFMDAVREMLIGLGYDMSRYSQESFSAPAETAEDVPDLDDVTPDESVAAQITFVSSKVTAGCTETDTVLAVARGAGLNIPSGCTFGVCGTCKIRKTKGEVHMVHNGGISEDDIADGYILACCSKPVGQVEVDIEGHHHHHH | soluble
MEWLNEPPNWSHSDQKIIVTTSPKTDFWRITHYGFIRDSGHFYFDRVSTDFVVDVKIKGNYKDLYDQAGIMIRADEQHWIKTGIEYVDGVQNLSAVVTHNYSDWSFTPLLNPPNIFQVRVERCQEAIHIAYLDEYSRYVPFRMAYFPVALDIQVGIMCASPQGNGYEVIFEDYQLTKKGEKLSLEHHHHHH | not soluble
MATASADTLCSQQEDESWGNLMLHGFQVEAYKPVRVGDKVCYSFYLKNTGSSDVTLGKKGVYLHTNDGDLSSNSGATISPGKSIFVKDCFIASSSGEWTTYPGVCIITAKGEFCHNFETSCTFDVFIECPENWNCMTAEDASQGNYIRYSDELCGYTITGFTAMNKVRCTATEKLLNALQALGV | not soluble
MSLEKQKGLAIITGASQGIGAVIAAGLATDGYRVVLIARSKQNLEKVHDEIMRSNKHVQEPIVLPLDITDCTKADTEIKDIHQKYGAVDILVNAAAMFMDGSLSEPVDNFRKIMEINVIAQYGILKTVTEIMKVQKNGYIFNVASRAAKYGFADGGIYGSTKFALLGLAESLYRELAPLGIRVTTLCPGWVNTDMAKKAGTPFKDEEMIQPDDLLNTIRCLLNLSENVCIKDIVFEMKKSIIEGHHHHHH | soluble
MGSDKIHHHHHHMGKGFTGAILTVMGVKSHIATTTGKTVINDRMVTIHFHSETLLNTEGEVPGDWLRLWFPHESRPGKLYQRAYTLTNVDADAGTFDLAFVLHEPLGPASAWATRCEAGESLEVMRYPGIPFAIPDPAPRGFLFLGDLTSYPAICSILETLDGEIPATAYLIAHDPLDYTFDFPQGEHITAQWISNEQSFIDHIADTDYTDFYTWIGAESSETRAAKKHLQTHAGMPKTHMNAQGYWNKGRAMGKSN | not soluble
MSNAIEINELHWLLAVTQNIDVGIVVLDLNYRVTVWNTFMENRSGVVPYVAIDKTFFELFPEVNRQWLSKKIDNVVTLGTPAFTIWEQRPYLVRFKNYQPITGHEEFMYQNTTLFPLRSTTGAISHVCLVIYDVTDVAANRN | not soluble
PDLSTWNLTIPQGRPAITISTSQLQRDYRSDYFQRTADGIRFWVPVNGSHTRNSEFPRSELRETLSSGRPYNWRYARADNWLEATLRIEAVPSTRRMIIGQIHSDGSNSGQAAPLVKLLYQLRLDQGRVQALVRERPDDGGTRAYTLMDGIPLGQPFSYRIGVSRSGLLSVSVNGSALEQQLDPQWAYQGLYFKAGLYLQDNRGPSSEGGRATFSELRVSHQ | soluble
